B1: M. tuberculosis sedoheptulose-7-phosphate isomerase (MtbGmhA), wild type (enzyme)
chain: MCTARTAEEIFVETIAVKTRILNDRVLLEAARAIGDRLIAGYRAGARVFMCGNGGSAADAQHFAAELTGHLIFDRPPLGAEALHANSSHLTAVANDYDYDTVFARALEGSARPGDTLFAISTSGNSMSVLRAAKTARELGVTVVAMTGESGGQLAEFADFLINVPSRDTGRIQESHIVFIHAISEHVEHALFAPRQ
notes: also called Rv0113; not shown: His6, N-terminal, kept

How the values were obtained:
SEC = target: the molecule itself; test: SEC
[1] = target: T1, M. tuberculosis HddA enzyme (MtbHddA) (M. tuberculosis, UniProt O53637 1-386); test: SPR; MtbGmhA immobilised (legend of Figure 4) on a gold surface activated by EDC-NHS; 25 °C; steady-state fit, Langmuir 1:1 model; details: both partners purified
T1 sequence: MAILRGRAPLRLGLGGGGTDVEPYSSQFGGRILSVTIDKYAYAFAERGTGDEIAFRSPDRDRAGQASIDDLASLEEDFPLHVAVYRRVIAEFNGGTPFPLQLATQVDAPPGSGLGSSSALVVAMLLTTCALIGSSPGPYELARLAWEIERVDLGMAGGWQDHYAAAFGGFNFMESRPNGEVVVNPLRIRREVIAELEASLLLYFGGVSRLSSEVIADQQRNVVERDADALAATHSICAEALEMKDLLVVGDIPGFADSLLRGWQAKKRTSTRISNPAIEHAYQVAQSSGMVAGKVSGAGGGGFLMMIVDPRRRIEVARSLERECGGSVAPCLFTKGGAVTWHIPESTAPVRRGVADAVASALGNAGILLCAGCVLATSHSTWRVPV

[2] = target: B1; test: as above; details: both partners purified
[3] = target: T1, M. tuberculosis HddA enzyme (MtbHddA); test: SPR; details: both partners purified

B1
stoichiometry N (SEC): 4 | Kd [1]: 8.45 ± 0.45 µM

B2: M. tuberculosis GmhB enzyme (MtbGmhB) (enzyme)
chain: MVAERAGHQWCLFLDRDGVINRQVVGDYVRNWRQFEWLPGAARALKKLRAWAPYIVVVTNQQGVGAGLMSAVDVMVIHRHLQMQLASDGVLIDGFQVCPHHRSQRCGCRKPRPGLVLDWLGRHPDSEPLLSIVVGDSLSDLELAHNVAAAAGACASVQIGGASSGGVADASFDSLWEFAVAVGHARGERG
Kd [2]: 4.9 ± 0.11 µM | Kd [3]: 20 ± 0.95 µM

Reference: paper PMC7705670, “Structural and functional characterization of M. tuberculosis sedoheptulose- 7-phosphate isomerase, a critical enzyme involved in lipopolysaccharide biosynthetic pathway” (Scientific Reports, 2020)
